Results published in patent US20110250170A1 (PHILOGEN S P A, published 2011).

Biological target: T1, A1 domain of tenascin-C (TNC-A1) (UniProt P24821 1073-1163, limits assumed)
T1 construct: domain: A1; Coupled to Sepharose resin in the immunoreactivity test; also called extra-domain A1 of tenascin-C
T1 sequence (looked up): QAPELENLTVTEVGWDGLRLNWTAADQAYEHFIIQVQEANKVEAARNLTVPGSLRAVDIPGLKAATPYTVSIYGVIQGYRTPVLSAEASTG
Assay: real-time interaction analysis, BIAcore 3000

- koff: < 0.01 s⁻¹
B1: F16 human monoclonal antibody (original clone 4A1-F16) (antibody, V domains shown)
VH: EVQLLESGGGLVQPGGSLRLSCAASGFTFSRYGASWVRQAPGKGLEWVSAISGSGGSTYYADSVKGRFTISRDNSKNTLYLQMNSLRAEDTAVYYCAKAHNAFDYWGQGTLVTVSR
VL: SSELTQDPAVSVALGQTVRITCQGDSLRSYYASWYQQKPGQAPVLVIYGKNNRPSGIPDRFSGSSSGNTASLTITGAQAEDEADYYCNSSVYTMPPVVFGGGTKLTVL
